Measured values as given in article PMC11582362 (Nature Communications, 2023).

Legend:
[1] = target: the molecule itself; test: SEC-SAXS; BioSEC-3 column, 15 °C, 0.3 mL/min, 20 mM Na-HEPES pH 7.3, 55 mM KOAc, 10 mM NaCl, 1 mM TCEP; purification tags cleaved off; SWING beamline, SOLEIL
[2] = target: the molecule itself; test: SEC-MALS; SEC-MALLS, BioSEC-3 column, 25 °C, 0.4 mL/min, 20 mM Na-phosphate pH 7.0, 100 mM NaCl, 2 mM 2-mercaptoethanol; His6-tag kept

Protein | stoichiometry N [1] | stoichiometry N [2]
ADAR1-dsRBD3 dsRBD3-short construct (residues 716-797) (domain or fragment, human, UniProt P55265 716-797, looked up, human ADAR1, folded part of the third dsRBD, residues 716-797 (Uniprot entry P55265); Modified pET28a with TEV site; also called dsRBD-short; ADAR1-dsRBD3 (crystal structures); source: E. coli BL21(DE3) Codon-plus (RIL), purified (Ni-NTA, TEV cleavage, SEC); not shown: His6, N-terminal, cleaved) IGELVRYLNTNPVGGLLEYARSHGFAAEFKLVDQSGPPHEPKFVYQAKVGGRWFPAVCAHSKKQGKQEAADAALRVLIGENE | 2 | 
ADAR1-dsRBD3 dsRBD3-mid construct (residues 708-801), tag cleaved (domain or fragment, human, UniProt P55265 708-801, looked up, human ADAR1, third dsRBD, residues 708-801 (Uniprot entry P55265); Modified pET28a with TEV site; also called dsRBD-mid; source: E. coli BL21(DE3) Codon-plus (RIL), purified (Ni-NTA, TEV cleavage, SEC); not shown: His6, N-terminal, cleaved) MMPNKVRKIGELVRYLNTNPVGGLLEYARSHGFAAEFKLVDQSGPPHEPKFVYQAKVGGRWFPAVCAHSKKQGKQEAADAALRVLIGENEKAER | 2 | 
ADAR1-dsRBD3 (residues 708-801) with uncleavable His6-tag, wild type (domain or fragment, human, UniProt P55265 708-801, looked up, human ADAR1, third dsRBD, residues 708-801 (Uniprot entry P55265); pET28a between NdeI and XhoI; also called wild-type ADAR1-dsRBD3; source: E. coli BL21(DE3) Codon-plus (RIL), purified (Ni-NTA, SEC); not shown: His6, N-terminal, kept) MMPNKVRKIGELVRYLNTNPVGGLLEYARSHGFAAEFKLVDQSGPPHEPKFVYQAKVGGRWFPAVCAHSKKQGKQEAADAALRVLIGENEKAER |  | 2
ADAR1-dsRBD3 dsRBD3-long construct (residues 688-817) (domain or fragment, human, UniProt P55265 688-817, looked up, human ADAR1, third dsRBD with flanking regions, residues 688-817 (Uniprot entry P55265); Modified pET28a with TEV site; source: E. coli BL21(DE3) Codon-plus (RIL), purified (Ni-NTA, TEV cleavage, SEC); not shown: His6, N-terminal, cleaved) MASDNQPEGMISESLDNLESMMPNKVRKIGELVRYLNTNPVGGLLEYARSHGFAAEFKLVDQSGPPHEPKFVYQAKVGGRWFPAVCAHSKKQGKQEAADAALRVLIGENEKAERMGFTEVTPVTGASLRR | 2 | 
